Reference: patent US20110195494A1 (Boehringer Ingelheim, published 2011)
Several values for one entry are separate records, joined by “and”; a condition that tells them apart may be missing. Equal values may be shown once. Values belong to the binder of their own block, whether it stands above or below them.

Columns and labels:
[1] = target: recombinant human DLL4, C-terminally His-tagged extracellular domain (R&D Systems) (human) (UniProt Q9NR61); assay: SPR, rhDLL4
[2] = target: cynomolgus DLL4 on overexpressing cells (cynomolgus (SEQ ID NO: 418 is the rhesus entry, stated 100% identical)); assay: FACS on CHO-cDLL4
Sequence of cynomolgus DLL4 on overexpressing cells (cynomolgus (SEQ ID NO: 418 is the rhesus entry, stated 100% identical)) (Q9NR61 other isoform, or with tags, fused parts or gaps limits assumed): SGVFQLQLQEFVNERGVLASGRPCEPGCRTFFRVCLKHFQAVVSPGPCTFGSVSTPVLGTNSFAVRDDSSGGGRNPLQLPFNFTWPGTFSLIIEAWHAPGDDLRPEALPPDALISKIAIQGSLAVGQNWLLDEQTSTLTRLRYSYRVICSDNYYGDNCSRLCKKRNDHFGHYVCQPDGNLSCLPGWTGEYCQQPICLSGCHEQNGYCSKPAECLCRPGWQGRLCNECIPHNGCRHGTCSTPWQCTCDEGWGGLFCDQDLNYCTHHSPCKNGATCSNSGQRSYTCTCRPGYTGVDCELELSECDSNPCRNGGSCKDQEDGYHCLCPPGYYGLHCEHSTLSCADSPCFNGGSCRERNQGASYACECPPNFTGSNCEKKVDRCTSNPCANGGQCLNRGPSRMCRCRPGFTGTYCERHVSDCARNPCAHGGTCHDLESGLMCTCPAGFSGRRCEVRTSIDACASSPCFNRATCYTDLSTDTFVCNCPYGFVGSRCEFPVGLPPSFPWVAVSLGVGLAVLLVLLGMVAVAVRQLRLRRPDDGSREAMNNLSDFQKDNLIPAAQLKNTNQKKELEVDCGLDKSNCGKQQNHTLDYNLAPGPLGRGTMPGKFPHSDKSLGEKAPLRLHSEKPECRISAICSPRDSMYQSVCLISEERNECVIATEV

[3] = target: full length human DLL4 on overexpressing CHO or HEK293 cells (human) (UniProt Q9NR61); assay: FACS on CHO-hDLL4
Sequence of full length human DLL4 on overexpressing CHO or HEK293 cells (human) (Q9NR61 27-685 limits assumed): as the sequence (Q9NR61 other isoform, or with tags, fused parts or gaps limits assumed) above, with V12I, S52T, S359N, R413L, S434N counted along it

[4] = target: full length mouse DLL4 on overexpressing CHO or HEK293 cells (mouse) (UniProt Q9JI71); assay: FACS on CHO-mDLL4
Sequence of full length mouse DLL4 on overexpressing CHO or HEK293 cells (mouse) (Q9JI71 27-686): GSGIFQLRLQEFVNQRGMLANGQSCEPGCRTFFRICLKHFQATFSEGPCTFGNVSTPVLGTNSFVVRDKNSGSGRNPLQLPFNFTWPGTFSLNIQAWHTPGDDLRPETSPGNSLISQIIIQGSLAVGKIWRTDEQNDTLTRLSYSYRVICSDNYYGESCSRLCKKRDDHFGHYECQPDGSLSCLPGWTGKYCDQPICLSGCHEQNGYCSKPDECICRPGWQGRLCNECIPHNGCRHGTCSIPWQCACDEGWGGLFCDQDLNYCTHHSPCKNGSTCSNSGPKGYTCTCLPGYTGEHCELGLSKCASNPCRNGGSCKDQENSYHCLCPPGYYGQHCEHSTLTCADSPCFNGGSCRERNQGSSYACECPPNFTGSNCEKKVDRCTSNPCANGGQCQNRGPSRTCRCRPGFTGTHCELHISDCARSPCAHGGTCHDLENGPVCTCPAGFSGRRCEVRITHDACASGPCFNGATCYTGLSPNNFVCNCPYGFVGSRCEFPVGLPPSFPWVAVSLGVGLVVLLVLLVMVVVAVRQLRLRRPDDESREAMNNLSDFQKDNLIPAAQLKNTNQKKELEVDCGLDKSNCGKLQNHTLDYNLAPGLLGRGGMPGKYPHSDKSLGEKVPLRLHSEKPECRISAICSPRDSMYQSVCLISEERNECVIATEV

[5] = target: full length human DLL4 on overexpressing CHO or HEK293 cells (human) (UniProt Q9NR61); assay: cell-based or functional assay
[6] = target: recombinant human DLL4, C-terminally His-tagged extracellular domain (R&D Systems) (human) (UniProt Q9NR61); assay: cell-based or functional assay
[7] = target: full length human DLL4 on overexpressing CHO or HEK293 cells (human) (UniProt Q9NR61); assay: FMAT, hNotch1/Fc on CHO-hDLL4
[8] = target: full length mouse DLL4 on overexpressing CHO or HEK293 cells (mouse) (UniProt Q9JI71); assay: FMAT, hNotch1/Fc on CHO-mDLL4
[9] = target: full length human DLL4 on overexpressing CHO or HEK293 cells (human) (UniProt Q9NR61); assay: FMAT, hNotch1/Fc on CHO-hDLL4; remark: listed apart in the source
[10] = target: full length mouse DLL4 on overexpressing CHO or HEK293 cells (mouse) (UniProt Q9JI71); assay: FMAT, hNotch1/Fc on CHO-mDLL4; remark: listed apart in the source
[11] = target: recombinant human DLL4, C-terminally His-tagged extracellular domain (R&D Systems) (human) (UniProt Q9NR61); assay: SPR Biacore T100, hDLL4 on chip
[12] = target: recombinant human DLL4, C-terminally His-tagged extracellular domain (R&D Systems) (human) (UniProt Q9NR61); assay: hDLL4/hNotch1-Fc competition ELISA
[13] = target: recombinant human DLL4, C-terminally His-tagged extracellular domain (R&D Systems) (human) (UniProt Q9NR61); assay: hDLL4/hNotch1-Fc competition ELISA; remark: listed apart in the source
[14] = target: recombinant human DLL4, C-terminally His-tagged extracellular domain (R&D Systems) (human) (UniProt Q9NR61); assay: competition ELISA, summary Table 21
[15] = target: recombinant human DLL4, C-terminally His-tagged extracellular domain (R&D Systems) (human) (UniProt Q9NR61); assay: binding ELISA, coated rhDLL4
[16] = target: recombinant mouse DLL4, C-terminally His-tagged extracellular domain (R&D Systems) (mouse) (UniProt Q9JI71); assay: binding ELISA, coated rmDLL4
Sequence of recombinant mouse DLL4, C-terminally His-tagged extracellular domain (R&D Systems) (mouse) (Q9JI71 27-532): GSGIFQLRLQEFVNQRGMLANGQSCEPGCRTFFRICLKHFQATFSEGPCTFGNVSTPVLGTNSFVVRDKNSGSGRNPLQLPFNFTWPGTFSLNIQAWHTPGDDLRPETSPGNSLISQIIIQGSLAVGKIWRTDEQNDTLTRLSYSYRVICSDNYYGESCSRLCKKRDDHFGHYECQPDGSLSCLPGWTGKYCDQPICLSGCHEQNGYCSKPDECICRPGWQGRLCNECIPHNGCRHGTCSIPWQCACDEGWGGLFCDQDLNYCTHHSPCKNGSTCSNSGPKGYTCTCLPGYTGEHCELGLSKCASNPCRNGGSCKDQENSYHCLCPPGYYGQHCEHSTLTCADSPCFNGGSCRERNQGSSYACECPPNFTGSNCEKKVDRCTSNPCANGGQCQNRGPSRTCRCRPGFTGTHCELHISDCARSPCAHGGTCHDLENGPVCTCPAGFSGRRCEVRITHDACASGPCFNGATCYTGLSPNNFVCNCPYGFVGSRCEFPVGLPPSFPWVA

[17] = target: recombinant human DLL4, C-terminally His-tagged extracellular domain (R&D Systems) (human) (UniProt Q9NR61); assay: hDLL4/hNotch1-Fc competition AlphaScreen
[18] = target: full length human DLL4 on overexpressing CHO or HEK293 cells (human) (UniProt Q9NR61); assay: FMAT competition, hDLL4 on cells, summary Table 21
[19] = target: full length mouse DLL4 on overexpressing CHO or HEK293 cells (mouse) (UniProt Q9JI71); assay: FMAT competition, mDLL4 on cells, summary Table 21
[20] = target: recombinant human DLL4, C-terminally His-tagged extracellular domain (R&D Systems) (human) (UniProt Q9NR61); assay: affinity on hDLL4, summary Table 21 (method not named there)
[21] = target: T1, full length mouse DLL4 on overexpressing CHO or HEK293 cells (mouse, UniProt Q9JI71 27-686); assay: FACS on HEK293-mDLL4 cells
T1 construct: whole, on cells; also called CHO-mDLL4; mDLL4
T1 sequence (Q9JI71 27-686): as the sequence (Q9JI71 27-686) above
Procedure: In order to determine the cynomologus cross-reactivity of the VHHs, a FACS binding experiment is performed. Cynomolgus DII4 expressing HEK293 cells (transient or stable transfection) are used for a titration binding experiment of the VHHs. After a 30 minutes incubation on ice, all samples are washed and detection is performed by applying anti-c-myc˜Alexa647 (Santa Cruz Biotechnology, Santa Cruz, Calif., USA). Human and mouse DII4 overexpressing HEK293 cells are taken as reference. The mean MCF value is determined on the FACS Array and used for calculation of the EC₅₀ value (see FIG. 9).

[22] = target: T2, full length human DLL4 on overexpressing CHO or HEK293 cells (human, UniProt Q9NR61 27-685); assay: FMAT, hNotch1/Fc on CHO-hDLL4, periplasmic extract
T2 construct: also called CHO-hDLL4; HEK293-hDII4
T2 sequence (Q9NR61 27-685 limits assumed): as the sequence (Q9NR61 other isoform, or with tags, fused parts or gaps limits assumed) above, with V12I, S52T, S359N, R413L, S434N counted along it
Excerpt: (§1) All calculations are based on the FL1 total signal which comprises the average of the fluorescence per well times the number of counts per well.

[23] = target: T1, full length mouse DLL4 on …; assay: FMAT, hNotch1/Fc on CHO-mDLL4, periplasmic extract
Excerpt: as §1

Sequence of recombinant human DLL4, C-terminally His-tagged extracellular domain (R&D Systems) (human) (Q9NR61 25-522): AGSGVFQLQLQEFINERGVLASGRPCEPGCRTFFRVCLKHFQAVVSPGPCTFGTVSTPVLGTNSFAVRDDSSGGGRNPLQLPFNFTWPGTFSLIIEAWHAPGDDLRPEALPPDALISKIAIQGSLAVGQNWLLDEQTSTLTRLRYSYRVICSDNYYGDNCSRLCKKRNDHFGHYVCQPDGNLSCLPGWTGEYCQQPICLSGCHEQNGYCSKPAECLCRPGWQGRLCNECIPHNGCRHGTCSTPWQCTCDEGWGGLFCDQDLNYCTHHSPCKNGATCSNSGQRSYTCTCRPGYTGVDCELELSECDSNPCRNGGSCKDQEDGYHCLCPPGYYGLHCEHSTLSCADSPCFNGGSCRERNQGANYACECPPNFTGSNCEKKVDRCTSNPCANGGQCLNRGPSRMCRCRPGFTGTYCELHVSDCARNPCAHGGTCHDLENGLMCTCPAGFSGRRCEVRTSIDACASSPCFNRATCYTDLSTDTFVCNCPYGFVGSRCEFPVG

Kd [1]: 1.5 nM
koff [1]: 0.00034 s⁻¹
kon [1]: 230000 M⁻¹ s⁻¹
EC50 [2]: 2.5 nM
EC50 [3]: 5.6 nM
EC50 [4]: 2.1 nM
IC50, DLL4/Notch1 reporter assay [5]: 133 nM
IC50 (nM) (experiment 1), DLL4 proliferation assay (HUVEC) [6]: 4.9 nM
IC50 (nM) (experiment 2), DLL4 proliferation assay (HUVEC) [6]: 5.6 nM
IC50 [7]: 5.4 nM
IC50 [8]: 2.3 nM
IC50 [9]: 5.5 nM and 3.4 nM
IC50 [10]: 3 nM and 1.6 nM
Kd [11]: 1.5 nM
koff [11]: 0.00034 s⁻¹
kon [11]: 230000 M⁻¹ s⁻¹
IC50 [12]: 0.7 nM
IC50 [13]: 1.5 nM and 1.2 nM
IC50 [14]: 1.5 nM and 1.2 nM
EC50 [15]: 3 nM
EC50 (read off the curve) [15]: 0.8 nM
EC50 [16]: 3 nM
EC50 (read off the curve) [16]: 0.9 nM
IC50 [17]: 0.3 nM
IC50 [18]: 5.5 nM and 3.4 nM
IC50 [19]: 3 nM and 1.6 nM
Kd [20]: 1.5 nM
B1: anti-DLL4 Fab fragment (of the Genentech anti-DLL4 mAb of US 2008/0014196) (Fab)
heavy: EVQLVESGGGLVQPGGSLRLSCAASGFTFTDNWISWVRQAPGKGLEWVGYISPNSGFTYYADSVKGRFTISADTSKNTAYLQMNSLRAEDTAVYYCARDNFGGYFDYWGQGTLVTVSS
light: DIQMTQSPSSLSASVGDRVTITCRASQDVSTAVAWYQQKPGKAPKLLIYSASFLYSGVPSRFSGSGSGTDFTLTISSLQPEDFATTYYCQQSYTGTVTFGQGTKVEIK

EC50 (read off the curve) [21]: 37 to 40 nM
FMAT hDLL4 % inhibition [22]: 91%
FMAT mDLL4 % inhibition [23]: 92%
B2: DLLBII101G08 (VHH)
VHH: EVQLVESGGGLVQAGGSLRLSCAASGRTFSSYAMAWFRQAPGKEREFVAAIRWSGGTAYYADSVQGRFTISRDNAKNTVYLQMNSLKPEDTAVYYCANRAADTRLGPYEYDYWGQGTQVTVSS
notes: also called DLLBII101G8; 101G8; not shown: C-terminal c-myc tag and His6 tag
